The text below walks through data of the DeepSol protein solubility set.

This data set in a line: soluble on expression in E. coli; label from the status in PepcDB or PDB records.
As to “MALKNVPFRSEVLAWNSDNLADYFRKLNYRDCEKAVKKYHIDGARFLNLTENDIQKFPKLRMPLLSKLSQDINKNEERRSIFTRKPQIPRFLEETESHEEDDGGWSSFEDDYESPNDDDPDGEDDGDYESPNEEEQALVDDAADYEPPPSNNEEALQSSILPPNSFHNTNSMYIDRPPTGKVSQQPPVPPLRPKPALPPLPTGRNHSPLSPPHPNHEEPSRSGNNKTAKLPAPSIDRSTKPPLDRSLAPLDREPFILGKKPPFSDKPSAPLGREHLPKIQKPPLPPAMDRHERNERLGPVTTRKPPVPRHGRGPDRRENDEDDVHQRPLPQPSLPSMSSNTFPSRSVQPSSKNTFPLAHMPGAFSESNIGFQQSASLPPYFSQGPGNRPPLRSEGRNLPLPVPNRPQPPSPGEEETPLDEEWYVSYITRPEAEAALRKINQDGTFLVRDSSKKTANNPYVLMVLYKDKVYNIQIRYQEESQVYLLGTGLRGKEDFLSVSDIIDYFRKMPLLLIDGKNRGSRYQCTLTHAAGCL”, the “soluble on expression in E. coli” value is “soluble”.

Take “GMTDAPADAPLDADARRAVKPVICYPNDSLPRPDLALYRAARASARKTGEVLVPPREGRCFEVKAGQFFRISSVEGPQVGDLNLHNLHDLTERFFSGKTRALHGTHVTTGERLWSNLPYLRPMATIIEDTLGWYGIDQYGGSVHDVIGTRCDPYTGNLLAGGHYHHCCHSNLTRALADHTGLPLHEAEMLVHDVLNVFMCTGFTRDTGQYFMKASPVRPGDYLEFFAEIDLLGNLSACPGGDCSSEHSSDTASCHPLLVEIFAPAEGMLGDWPSPSVNGYDRSHGR”: the “soluble on expression in E. coli” value is given as “soluble”.

Consider “MGSDKIHHHHHHMWKSISQVLAEQFGAYYFIKHKEKLYSGEMNEIWLINDEVQTVFVKINERSYRSMFRAEADQLALLAKTNSINVPLVYGIGNSQGHSFLLLEALNKSKNKQSSFTIFAEKIAQLHQIQGPDKYGLDFDTWLGPIYQPNDWQTSWAKFFSENRIGWQLQICKEKGLIFGNIDLIVQIVADTLSKHNPKPSILHGNLWIENCIQVDDKIFVCNPACYWGDRECDIAFSSLFEPFPTNFYQRYNEIYPLEEGYLERKLIYQLYYLLNFSYRYYNKKQSYVSLTQKLINQILHKIDK”, for which the “soluble on expression in E. coli” value is “not soluble”.

Take “MSLIYFFMVDAVELSRKYEGKIEIYPKVPITSYNDFALIYTPGVAEVSKAIYKDPDKSFELTSRWNTIAVVTDGTRVLGLGNIGPTAAMPVMEGKSLLFKYLGGVDAIPLPINVKSADEFTNVVKALETSFGGINLEDIESPKCFYILEKLQSMLNIPVWHDDQQGTAAAILAGLINAMILTNKDPKESKVVFYGAGASNIAAARILAKYGFKYENIVMIDSKGPLYADREDVDHLMLHHKWKYELAIKTNKWEAKEIKDAFSGADAVVAASTPGPNVIKKEWISLMNKEAIVFALANPVPEIWPQDAKEAGAKIVATGRSDFPNQVNNSLIFPAIFRGVLDSRAKAITDEMTIAASEALAKYARDRGINENYIIPRMDEWEAFYEEAAAVASKAVELGLARVKKSREEFREIAKERIIRARKIMNLVISTWSPEGHHHHHH”: the “soluble on expression in E. coli” value is “not soluble”.

For “MAHHHHHHMFYMFLTRNDHQDRRRESPPPTPKKHGASFLRRIHLGEFSGRTICISWETLVEKHEWRDCAKETLLALSSNMIVYLMCHISNANEKGKVLSMVKDIPQLARHNILFCETEKGYEAFSRQIKPAILVTHDSAQAEFLSLVLPNVVLVGSSATGSAMTSISSLSELLF”, the “soluble on expression in E. coli” value is “not soluble”.

Turning to “MSSEDFYRELKQRSLFEAIHLIEQELLKVESQIGTDALPKNEKLNLKVNASLGFENAQLVSTKPLGKDKLALETNLIGLTGEQGVLPQHYSELALHRLKEGDHAMVDFYDIFNHRLLSLYYRSWQLSQLTIQARAHAKNQRSPLTDCMSSLTGGGNDLALHYGGMYASPTRSKGALKSILECLSGCQIRIHEFQGQWMRLSKSEQTRLVSKSMPEGQFAQLGAGASLGKKAWNINASTTIEFLPKESKQVTNLLPKTNTLKTIKQVAGDFIGKHKHVKWQLTTKHSLLPQVQISKQQGQLGVGSVLKKHERTEDRNITITV”, the “soluble on expression in E. coli” value was “not soluble”.

On to “SRKVFVGGLPPDIDEDEITASFRRFGPLVVDWPHKAESKSYFPPKGYAFLLFQEESSVQALIDACLEEDGKLYLCVSSPTIKDKPVQIRPWNLSDSDFVMD”, for which the “soluble on expression in E. coli” value was “soluble”.

With “MSLNIVSMAREASSHKNSGKKKAIVKFIIRTLLHYSYIKKMNDNFAHDERKMLFKKQPNFLTKCITPYLRNGLSRQEIIDILVKHYDWFEYKFSTDARHQIYDDVLTLYKLEIDEQDYLINLSFDRNSRKEGELTLTLTDSKYNKYYVLAFTVVDNDIYIGCMQGGANDNGFSKLFTKSIYGLRPKSFMVETLRLLAVNLNINHIYAVKNSAHIYTAKRYGKKSKMIGLDYDRLWKEHNGESHNDYFYVLPIKSERKAMEDIKRPKRKMYRERYAWLDNYDKELKNTLDYICNEGHHHHHH”, the “soluble on expression in E. coli” value is reported as “not soluble”.

Turning to “MPKTEDKYLPLMSKEKIEKALAFHKSFPQYSETPLAELNHMAAYLGLNDFFVKDESYRFGLNAFKVLGGSFAMANYIAEKLKKDVSELTYDELTSDQLRSAFGQATFFTATDGNHGRGVAWAANKLGQKSVVLMPKGSTQTRKENIEKEGATVTIEEVNYDECVRMANKMAEETENGVMVQDTAWDGYEKIPTWIMQGYGTMALEASQQLRKFGSERPSHVFVQAGVGSLAGAVIGYFANAFPENPPIMVVVEAQAADCLYQSAIKKDGEIRFVDGDLQTIMAGLACGEPNTISFDILKNHTSFFVSAPDWVSEKGMRMLGAPLKGDPQVVSGESGAVAMGLVATVMQDPDYQELHEALQLDETSNVLMFSTEGDTDPDNYKKILWR”, the “soluble on expression in E. coli” value is on record as “not soluble”.

Regarding “METMCEVKVITGTSAAAEAAKLADVDVIAAYPITPQTTCVEKLAEFVANGELDAEYIKVESEHSAMSACIGAAATGARTFTATASQGLALMHEMLFIASGMRLPIVMMVANRALSAPINIWNDHQDSIAERDSGWIQIYVEDNQETLDSIIQAYKIAENEDVLLPVMVCLDGFILTHTVEPVTIPKAERVREFLGVYEPKHAYLDPDRPITQGPVGVPDCYMETRKQIEEAMERAKKVIRDVNEEFAEWFKRKY”, the “soluble on expression in E. coli” value is listed as “not soluble”.

“MRVARLFRFPVKGFPAEEIPEADVRTGRGIRGDRVAAFTNGSLDIPDDSWHRYSAFTVLKNDTDLQKWQVELDLAEAADSSQPAVADPSATVTLTSPQNETTTFRTDDRDTRATSADFLSARIPPQGDFPRALSVADQGMFDSQAAGVSIINPATVAAISQTADGQAALAPGETELDPLRFRGNVLVDGLAPFEEFALIGKIVRLGGVRLAITQAIERCPATTVNPTTTAVDVNVPRVLASACGHLHCGVYGRILESGLVSTGDEIEIEGDAPRELVKTARTPRFMTVLGSQQICNDIVEVSLRDDQGWIREFDEPGTNLRVHLDLGEPFWRTYTITDVSDDIVSIAVRTQGKGSRAVAELAAGQSVLASGPHGTMTANRVFGGTTALVTAGIGITPSLGLMRGAELSGTEKIKLFHVDRDHRTACLWDRLQKRAHSRQIPVETHHRDTASQGRPGHADLVDWLAGCDNVMVCGPADFTRAVLDASAEAGVPAVHQEIFASPNTGMSEAIAQCSPAEVTLENSGTSFLWEPQQGTLLEALEARGLRADNSCRGGSCGTCAVSLAAGSVIYPVEPAARIAADEVLVCSAVPSGPISLGILEHHHHHH”: the “soluble on expression in E. coli” value is “not soluble”.

With “MESNDSGGVAAKHGFLFQDCVAAYHVTRMLRDKTIRSVRCEVTDDIDIVSDGYIDFVQVKSTGKTRWNISDIVQNSKGADKKTIPCSSILHKSMQCESDLSLGRRYSIVTEEKVNKTLEYLTISPNARLDKPGRQELIDDLNKRTDNFLTDSGISVSDWIDAATWEVFSSLRELELLGIKNIRLASQDLHGVILSSETVAEDIWCRILDTVTRKGEHSRRIHSADDKSYLRPDLLEWFKQRVEDDQSRSGRKIYVKRDLPHILTPFRAPMASVCAKRKGQVLHQQYSLKKYRYKHIADNVCQWLDEVFLRPKEMSDIHKLTFIEKRERLKNSVFKSLHDVSEFLGRVLLHATIRQHHESQPIPCMLYVEKAGAEKILENVHIVRRDPEGDQLWIGFSELVTDINIAVRLPEIRDQLYEDISDCIDTARKKILDIKDDNYLLRHDIDEILDGSQPFDAHLDRFTFVLFVGYDSNLLTEPETPGFEDDLEKETAVLFEKFAADLIEDSPFANLCIHVFIYPAPSLERLTQLVDEKVREVV”, the “soluble on expression in E. coli” value was “soluble”.

Consider “MGSDKIHHHHHHMAQQPLAYRMRPQRLEDIVGQQDLVAPGKIIARMVAAKLLSSMILYGPPGTGKTSIASAIAGSTQYAFRKLNAATDSKKDLQIVAEEAKMSGTVILLLDEIHRLDKTKQDFLLPHLESGRIVLIGATTENPYININPAIRSRTQIFEVHPLTPDDIKIALHRALTDTENGLGKLPIDLNTEALNFIAGATNGDLRSALNGLELAAQSTPAANDDRIHITLAVAEACFQRKALMGDKDGDAHYDVISAFQKSIRGSDTDAALHYLAQLVAAGDLPAICRRLMVIAYEDIGMANLPAAARTVQAVQAAQQLGLPEGRIPLADAVIELCLSPKSDSGISAIDAALADVLNGHNGAVPDHLKDAHYAGAKKLGHGTDYKYPHNFPNDWVKQQYLPDTLKNAEYYHPKTNGRFETQLAQQYRRLLTANRH”, for which the “soluble on expression in E. coli” value is “not soluble”.

Turning to “HHHHHHSSGLVPRGSHMGGTGSGMTPGEAWKKQLNKLGKTQFEQYKRSCILEVDRTHARDSLENGIQNGIAVSRGSAKLRWMEERGYVKPTGIVVDLGCGRGGWSYYAASLKNVKKVMAFTLGVQGHEKPIMRTTLGWNLIRFKDKTDVFNMEVIPGDTLLCDIGESSPSIAVEEQRTLRVLNCAKQWLQEGNYTEFCIKVLCPYTPLIMEELSRLQLKHGGGLVRVPLSRNSTHEMYWVSGTRTDVVGTVSNVSRLLTRRMLNKPQPPTLEDDVILDMGTR”, the “soluble on expression in E. coli” value is recorded as “soluble”.

“MKRIGYARTTIIEDDLKNQLTTLQSFGCDDIFQETFDPQAEISVLDEVEKLLSAGDTLIVCKLHHLGKTTRQLTDFMKMLKEKQVDFVSISEGIDTHLPTGEAYFQLMESLSAMECALIKERTLVGLHKARENGKVGGRPKIDGRTVRKIRALYYENKETIQFISNKCGVSVGTCYKYINLPETDVERLYS”: the “soluble on expression in E. coli” value is “not soluble”.

“WTKKTLGSLFELKKGEMLEKELLAPDGKYEYFNGGIKASGRTNEFNTFKNTISIIIGGSCGYVRLADKDYFCGQSSCTLTVLDPLEIDLKFAYYALKSQEEKITSLASGTTIKNIRLSDLKDLPIPLVKSIQDQRTIAHALSVFDL”: the “soluble on expression in E. coli” value is given as “soluble”.

On to “MIEGHGDDSYKYRHPIRSNFSSNVYNKVNLDGLRAHLCGRISAISAYPEPEPYTLEARLADRHALPAASVCVTNGATEAIYLIAQTFRGTNTAILMPTFSEYADACRMHGHKVTSLYTLDAVPEDVRMVWLCNPNNPTGEVRDKKYLTELIAKHPRVCFVIDQSYEYFTLKELFTAQEAAGFPNVILLHSMTKRYAIPGLRLGYVTAHPGLIGRLRTNRMPWSVNQLAIEAGLYLLSEGIPAGLSMKDYLAECARLKSSLEAIGGLEVWPTDTHFMLVCLRFGKAAALKEYLAREEGILIRDASNFEGLDERFFRIATQTPEENDELVGAIAKWMAE”, for which the “soluble on expression in E. coli” value is reported as “not soluble”.

“MRALILGGTGEGRDVAAILHVAGWRVTSSLAGRVSNPKLPVGEVRIGGFGGPAGLTQWLLREGVEVIIDATHPFAERISASAAEASRATGIPLIALHRPEWKPRPRDRWIPVTSMQEAADKAARDYHHIFLTIGRQQLAPFAHDAHNLYVVRAVEPPQVALPQRHRLILSRGPFTLESEKKLMIDNQIDCVVTKNSGGPLTHAKLDAARDLGIDVVMVQRPQLPKVTHVATSAAEVAEIIDSL”: the “soluble on expression in E. coli” value was “not soluble”.

In the case of “MALLEICCYSMECALTAQQNGADRVELCAAPKEGGLTPSLGVLKSVRQRVTIPVHPIIRPRGGDFCYSDGEFAAILEDVRTVRELGFPGLVTGVLDVDGNVDMPRMEKIMAAAGPLAVTFHRAFDMCANPLYTLNNLAELGIARVLTSGQKSDALQGLSKIMELIAHRDAPIIMAGAGVRAENLHHFLDAGVLEVHSSAGAWQASPMRYRNQGLSMSSDEHADEYSRYIVDGAAVAEMKGIIERHQAKLEHHHHHH”, the “soluble on expression in E. coli” value is on record as “soluble”.
